Legend:
Conditions in all cases: protein: recombinant; label: 32P 5' end; blunt
[1] = target: GST-Pax6(5a) paired domain (PD5a) (UniProt P63015-2 4-144); experiment: EMSA; EMSA: 2 ug protein, 20000 cpm 32P probe, 1 ug poly(dI-dC), 5% TBE polyacrylamide gel; buffer, salt, pH and temperature not given (as in ref. 35)
[2] = target: T1, GST-Pax6 paired domain (PD) (UniProt P63015 4-130); experiment: as above
[3] = target: T1, GST-Pax6 paired domain (PD); experiment: EMSA; stronger than WT; EMSA: 2 ug protein, 20000 cpm 32P probe, 1 ug poly(dI-dC), 5% TBE polyacrylamide gel; buffer, salt, pH and temperature not given (as in ref. 35)

T1 sequence (P63015 4-130): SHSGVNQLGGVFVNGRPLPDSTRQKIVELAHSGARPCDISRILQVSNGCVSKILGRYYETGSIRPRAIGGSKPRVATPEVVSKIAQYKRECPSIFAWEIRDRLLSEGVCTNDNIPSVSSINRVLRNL
Sequence of GST-Pax6(5a) paired domain (PD5a) (P63015 other isoform, or with tags, fused parts or gaps): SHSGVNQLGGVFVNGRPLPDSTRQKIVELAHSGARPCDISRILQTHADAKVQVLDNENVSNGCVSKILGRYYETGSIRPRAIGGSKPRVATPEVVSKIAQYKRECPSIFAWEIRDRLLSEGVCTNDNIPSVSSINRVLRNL

B1: mDkk3 BSAP WT (dsDNA)
DNA 1: CATCTGGGGGCGGGCAGAGCAGCGGGGCGGGGCGGGACGGGCAAGAGGGG
DNA 2: CCCCTCTTGCCCGTCCCGCCCCGCCCCGCTGCTCTGCCCGCCCCCAGATG
binding result [1]: no binding | binding result [2]: binds

B2: mDkk3 5aCON MUT (dsDNA)
DNA 1: GGAGGAAGCTACCCTGTATCCGATTTTTCGAGAGGTGGAGGAG
DNA 2: CTCCTCCACCTCTCGAAAAATCGGATACAGGGTAGCTTCCTCC
binding result [3]: binds

B3: mDkk3 5aCON OPT (dsDNA)
DNA 1: GGAGGAAGCTATGCTCAGTGAGATGTTCATTGAGGTGGAGGAG
DNA 2: CTCCTCCACCTCAATGAACATCTCACTGAGCATAGCTTCCTCC
binding result [3]: binds
